How the values were obtained:
HeLa Kyoto [1] = experiment: solubility in G1/S (NP-40 vs SDS abundance) (log2 ratio); higher = more soluble; conditions: cell cycle stage: G1/S
HeLa Kyoto [2] = experiment: melting temperature (median over replicates), in situ; higher = more thermally stable
HeLa Kyoto [3] = experiment: solubility change mitosis vs G1/S (difference of NP-40 vs SDS log2 ratios) (log2 ratio difference); higher = more soluble in mitosis
HeLa Kyoto [4] = experiment: thermal stability score vs G1/S (z-score of summed log2 fold changes over temperatures); higher = more thermally stable than in G1/S
[5] = cell cycle stage: early G1 (4.5 h after nocodazole release)
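For melting temperature (median over replicates), in situ in this document: HeLa Kyoto cells synchronized by double thymidine or nocodazole block, proteins quantified by TMT10plex mass spectrometry, three independent biological replicates.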
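For solubility change mitosis vs G1/S (difference of NP-40 vs SDS log2 ratios) in this document: synchronized HeLa Kyoto cells (double thymidine block for G1/S, nocodazole release for mitosis), protein amounts in NP-40 versus SDS lysates quantified by mass spectrometry, three biological replicates.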
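For solubility in G1/S (NP-40 vs SDS abundance) in this document: HeLa Kyoto cells arrested at G1/S by double thymidine block, proteins quantified by TMT10plex mass spectrometry in mild NP-40 versus SDS extracts, three biological replicates.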
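For thermal stability score vs G1/S (z-score of summed log2 fold changes over temperatures) in this document: synchronized HeLa Kyoto cells, proteins quantified by TMT10plex mass spectrometry, three biological replicates, mitosis taken 0.5 h after nocodazole release, G1/S directly after double thymidine block.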

| Sequence | solubility in G1/S (log2) (HeLa Kyoto [1]) | melting temperature (HeLa Kyoto [2]; cell cycle stage: G1/S) | melting temperature (HeLa Kyoto [2]; cell cycle stage: mitosis) | solubility change mitosis (log2) (HeLa Kyoto [3]) | thermal stability score (HeLa Kyoto [4]; [5]) | thermal stability score (HeLa Kyoto [4]; cell cycle stage: mitosis) |
| --- | --- | --- | --- | --- | --- | --- |
| MAPVLSKDSADIESILALNPRTQTHATLCSTSAKKLDKKHWKRNPDKNCFNCEKLENNFDDIKHTTLGERGALREAMRCLKCADAPCQKSCPTNLDIKSFITSIANKNYYGAAKMIFSDNPLGLTCGMVCPTSDLCVGGCNLYATEEGPINIGGLQQFATEVFKAMSIPQIRNPSLPPPEKMSEAYSAKIALFGAGPASISCASFLARLGYSDITIFEKQEYVGGLSTSEIPQFRLPYDVVNFEIELMKDLGVKIICGKSLSVNEMTLSTLKEKGYKAAFIGIGLPEPNKDAIFQGLTQDQGFYTSKDFLPLVAKGSKAGMCACHSPLPSIRGVVIVLGAGDTAFDCATSALRCGARRVFIVFRKGFVNIRAVPEEMELAKEEKCEFLPFLSPRKVIVKGGRIVAMQFVRTEQDETGKWNEDEDQMVHLKADVVISAFGSVLSDPKVKEALSPIKFNRWGLPEVDPETMQTSEAWVFAGGDVVGLANTTVESVNDGKQASWYIHKYVQSQYGASVSAKPELPLFYTPIDLVDISVEMAGLKFINPFGLASATPATSTSMIRRAFEAGWGFALTKTFSLDKDIVTNVSPRIIRGTTSGPMYGPGQSSFLNIELISEKTAAYWCQSVTELKADFPDNIVIASIMCSYNKNDWTELAKKSEDSGADALELNLSCPHGMGERGMGLACGQDPELVRNICRWVRQAVQIPFFAKLTPNVTDIVSIARAAKEGGANGVTATNTVSGLMGLKSDGTPWPAVGIAKRTTYGGVSGTAIRPIALRAVTSIARALPGFPILATGGIDSAESGLQFLHSGASVLQVCSAIQNQDFTVIEDYCTGLKALLYLKSIEELQDWDGQSPATVSHQKGKPVPRIAELMDKKLPSFGPYLEQRKKIIAENKIRLKEQNVAFSPLKRNCFIPKRPIPTIKDVIGKALQYLGTFGELSNVEQVVAMIDEEMCINCGKCYMTCNDSGYQAIQFDPETHLPTITDTCTGCTLCLSVCPIVDCIKMVSRTTPYEPKRGVPLSVNPVC [DPYD] | -0.116 | 54 °C | 53.5 °C | 0.02 | -1.59 | -1.63 |
| MDRMASSMKQVPNPLPKVLSRRGVGAGLEAAERESFERTQTVSINKAINTQEVAVKEKHARTCILGTHHEKGAQTFWSVVNRLPLSSNAVLCWKFCHVFHKLLRDGHPNVLKDSLRYRNELSDMSRMWGHLSEGYGQLCSIYLKLLRTKMEYHTKNPRFPGNLQMSDRQLDEAGESDVNNFFQLTVEMFDYLECELNLFQTVFNSLDMSRSVSVTAAGQCRLAPLIQVILDCSHLYDYTVKLLFKLHSCLPADTLQGHRDRFMEQFTKLKDLFYRSSNLQYFKRLIQIPQLPENPPNFLRASALSEHISPVVVIPAEASSPDSEPVLEKDDLMDMDASQQNLFDNKFDDIFGSSFSSDPFNFNSQNGVNKDEKDHLIERLYREISGLKAQLENMKTESQRVVLQLKGHVSELEADLAEQQHLRQQAADDCEFLRAELDELRRQREDTEKAQRSLSEIERKAQANEQRYSKLKEKYSELVQNHADLLRKNAEVTKQVSMARQAQVDLEREKKELEDSLERISDQGQRKTQEQLEVLESLKQELATSQRELQVLQGSLETSAQSEANWAAEFAELEKERDSLVSGAAHREEELSALRKELQDTQLKLASTEESMCQLAKDQRKMLLVGSRKAAEQVIQDALNQLEEPPLISCAGSADHLLSTVTSISSCIEQLEKSWSQYLACPEDISGLLHSITLLAHLTSDAIAHGATTCLRAPPEPADSLTEACKQYGRETLAYLASLEEEGSLENADSTAMRNCLSKIKAIGEELLPRGLDIKQEELGDLVDKEMAATSAAIETATARIEEMLSKSRAGDTGVKLEVNERILGCCTSLMQAIQVLIVASKDLQREIVESGRGTASPKEFYAKNSRWTEGLISASKAVGWGATVMVDAADLVVQGRGKFEELMVCSHEIAASTAQLVAASKVKADKDSPNLAQLQQASRGVNQATAGVVASTISGKSQIEETDNMDFSSMTLTQIKRQEMDSQVRVLELENELQKERQKLGELRKKHYELAGVAEGWEEGTEASPPTLQEVVTEKE [HIP1] | 0.0989 | 49.9 °C | 50.2 °C | 0.0765 | 0.173 | 1.11 |
| MVRKKNPPLRNVASEGEGQILEPIGTESKVSGKNKEFSADQMSENTDQSDAAELNHKEEHSLHVQDPSSSSKKDLKSAVLSEKAGFNYESPSKGGNFPSFPHDEVTDRNMLAFSSPAAGGVCEPLKSPQRAEADDPQDMACTPSGDSLETKEDQKMSPKATEETGQAQSGQANCQGLSPVSVASKNPQVPSDGGVRLNKSKTDLLVNDNPDPAPLSPELQDFKCNICGYGYYGNDPTDLIKHFRKYHLGLHNRTRQDAELDSKILALHNMVQFSHSKDFQKVNRSVFSGVLQDINSSRPVLLNGTYDVQVTSGGTFIGIGRKTPDCQGNTKYFRCKFCNFTYMGNSSTELEQHFLQTHPNKIKASLPSSEVAKPSEKNSNKSIPALQSSDSGDLGKWQDKITVKAGDDTPVGYSVPIKPLDSSRQNGTEATSYYWCKFCSFSCESSSSLKLLEHYGKQHGAVQSGGLNPELNDKLSRGSVINQNDLAKSSEGETMTKTDKSSSGAKKKDFSSKGAEDNMVTSYNCQFCDFRYSKSHGPDVIVVGPLLRHYQQLHNIHKCTIKHCPFCPRGLCSPEKHLGEITYPFACRKSNCSHCALLLLHLSPGAAGSSRVKHQCHQCSFTTPDVDVLLFHYESVHESQASDVKQEANHLQGSDGQQSVKESKEHSCTKCDFITQVEEEISRHYRRAHSCYKCRQCSFTAADTQSLLEHFNTVHCQEQDITTANGEEDGHAISTIKEEPKIDFRVYNLLTPDSKMGEPVSESVVKREKLEEKDGLKEKVWTESSSDDLRNVTWRGADILRGSPSYTQASLGLLTPVSGTQEQTKTLRDSPNVEAAHLARPIYGLAVETKGFLQGAPAGGEKSGALPQQYPASGENKSKDESQSLLRRRRGSGVFCANCLTTKTSLWRKNANGGYVCNACGLYQKLHSTPRPLNIIKQNNGEQIIRRRTRKRLNPEALQAEQLNKQQRGSNEEQVNGSPLERRSEDHLTESHQREIPLPSLSKYEAQGSLTKSHSAQQPVLVSQTLDIHKRMQPLHIQIKSPQESTGDPGNSSSVSEGKGSSERGSPIEKYMRPAKHPNYSPPGSPIEKYQYPLFGLPFVHNDFQSEADWLRFWSKYKLSVPGNPHYLSHVPGLPNPCQNYVPYPTFNLPPHFSAVGSDNDIPLDLAIKHSRPGPTANGASKEKTKAPPNVKNEGPLNVVKTEKVDRSTQDELSTKCVHCGIVFLDEVMYALHMSCHGDSGPFQCSICQHLCTDKYDFTTHIQRGLHRNNAQVEKNGKPKE [TRPS1] | 0.00718 | 51.1 °C | 51.9 °C | -0.0534 | 0.487 | 0.962 |
| MAAVAAVAARRRRSWASLVLAFLGVCLGITLAVDRSNFKTCEESSFCKRQRSIRPGLSPYRALLDSLQLGPDSLTVHLIHEVTKVLLVLELQGLQKNMTRFRIDELEPRRPRYRVPDVLVADPPIARLSVSGRDENSVELTMAEGPYKIILTARPFRLDLLEDRSLLLSVNARGLLEFEHQRAPRVSQGSKDPAEGDGAQPEETPRDGDKPEETQGKAEKDEPGAWEETFKTHSDSKPYGPMSVGLDFSLPGMEHVYGIPEHADNLRLKVTEGGEPYRLYNLDVFQYELYNPMALYGSVPVLLAHNPHRDLGIFWLNAAETWVDISSNTAGKTLFGKMMDYLQGSGETPQTDVRWMSETGIIDVFLLLGPSISDVFRQYASLTGTQALPPLFSLGYHQSRWNYRDEADVLEVDQGFDDHNLPCDVIWLDIEHADGKRYFTWDPSRFPQPRTMLERLASKRRKLVAIVDPHIKVDSGYRVHEELRNLGLYVKTRDGSDYEGWCWPGSAGYPDFTNPTMRAWWANMFSYDNYEGSAPNLFVWNDMNEPSVFNGPEVTMLKDAQHYGGWEHRDVHNIYGLYVHMATADGLRQRSGGMERPFVLARAFFAGSQRFGAVWTGDNTAEWDHLKISIPMCLSLGLVGLSFCGADVGGFFKNPEPELLVRWYQMGAYQPFFRAHAHLDTGRREPWLLPSQHNDIIRDALGQRYSLLPFWYTLLYQAHREGIPVMRPLWVQYPQDVTTFNIDDQYLLGDALLVHPVSDSGAHGVQVYLPGQGEVWYDIQSYQKHHGPQTLYLPVTLSSIPVFQRGGTIVPRWMRVRRSSECMKDDPITLFVALSPQGTAQGELFLDDGHTFNYQTRQEFLLRRFSFSGNTLVSSSADPEGHFETPIWIERVVIIGAGKPAAVVLQTKGSPESRLSFQHDPETSVLVLRKPGINVASDWSIHLR [GANAB] | -0.0187 | 53.6 °C | 54.2 °C | -0.155 | 3.69 | 5.36 |
| MVEEENIRVVRCGGSELNFRRAVFSADSKYIFCVSGDFVKVYSTVTEECVHILHGHRNLVTGIQLNPNNHLQLYSCSLDGTIKLWDYIDGILIKTFIVGCKLHALFTLAQAEDSVFVIVNKEKPDIFQLVSVKLPKSSSQEVEAKELSFVLDYINQSPKCIAFGNEGVYVAAVREFYLSVYFFKKKTTSRFTLSSSRNKKHAKNNFTCVACHPTEDCIASGHMDGKIRLWRNFYDDKKYTYTCLHWHHDMVMDLAFSVTGTSLLSGGRESVLVEWRDATEKNKEFLPRLGATIEHISVSPAGDLFCTSHSDNKIIIIHRNLEASAVIQGLVKDRSIFTGLMIDPRTKALVLNGKPGHLQFYSLQSDKQLYNLDIIQQEYINDYGLIQIELTKAAFGCFGNWLATVEQRQEKETELELQMKLWMYNKKTQGFILNTKINMPHEDCITALCFCNAEKSEQPTLVTASKDGYFKVWILTDDSDIYKKAVGWTCDFVGSYHKYQATNCCFSEDGSLLAVSFEEIVTIWDSVTWELKCTFCQRAGKIRHLCFGRLTCSKYLLGATENGILCCWNLLSCALEWNAKLNVRVMEPDPNSENIAAISQSSVGSDLFVFKPSEPRPLYIQKGISREKVQWGVFVPRDVPESFTSEAYQWLNRSQFYFLTKSQSLLTFSTKSPEEKLTPTSKQLLAEESLPTTPFYFILGKHRQQQDEKLNETLENELVQLPLTENIPAISELLHTPAHVLPSAAFLCSMFVNSLLLSKETKSAKEIPEDVDMEEEKESEDSDEENDFTEKVQDTSNTGLGEDIIHQLSKSEEKELRKFRKIDYSWIAAL [WDR75] | -1.21 | 50 °C | 50.1 °C | 0.372 | 1.76 | 0.92 |
| MAELQMLLEEEIPSGKRALIESYQNLTRVADYCENNYIQATDKRKALEETKAYTTQSLASVAYQINALANNVLQLLDIQASQLRRMESSINHISQTVDIHKEKVARREIGILTTNKNTSRTHKIIAPANMERPVRYIRKPIDYTVLDDVGHGVKWLKAKHGNNQPARTGTLSRTNPPTQKPPSPPMSGRGTLGRNTPYKTLEPVKPPTVPNDYMTSPARLGSQHSPGRTASLNQRPRTHSGSSGGSGSRENSGSSSIGIPIAVPTPSPPTIGPENISVPPPSGAPPAPPLAPLLPVSTVIAAPGSAPGSQYGTMTRQISRHNSTTSSTSSGGYRRTPSVTAQFSAQPHVNGGPLYSQNSISIAPPPPPMPQLTPQIPLTGFVARVQENIADSPTPPPPPPPDDIPMFDDSPPPPPPPPVDYEDEEAAVVQYNDPYADGDPAWAPKNYIEKVVAIYDYTKDKDDELSFMEGAIIYVIKKNDDGWYEGVCNRVTGLFPGNYVESIMHYTD [ABI1] | 0.313 | 51.1 °C | 51.4 °C | -0.104 | -0.724 | -0.695 |
| MAAPGLRLGAGRLFEMPAVLERLSRYNSTSQAFAEVLRLPKQQLRKLLYPLQEVERFLAPYGRQDLHLRIFDPSPEDIARADNIFTATERNRIDYVSSAVRIDHAPDLPRPEVCFIGRSNVGKSSLIKALFSLAPEVEVRVSKKPGHTKKMNFFKVGKHFTVVDMPGYGFRAPEDFVDMVETYLKERRNLKRTFLLVDSVVGIQKTDNIAIEMCEEFALPYVIVLTKIDKSSKGHLLKQVLQIQKFVNMKTQGCFPQLFPVSAVTFSGIHLLRCFIASVTGSLD [GTPBP8] | 0.0451 | 50.8 °C | 52.8 °C | -0.0931 | -0.696 | 0.105 |
| MQRASRLKRELHMLATEPPPGITCWQDKDQMDDLRAQILGGANTPYEKGVFKLEVIIPERYPFEPPQIRFLTPIYHPNIDSAGRICLDVLKLPPKGAWRPSLNIATVLTSIQLLMSEPNPDDPLMADISSEFKYNKPAFLKNARQWTEKHARQKQKADEEEMLDNLPEAGDSRVHNSTQKRKASQLVGIEKKFHPDV [UBE2T] | 0.66 | 49.2 °C | 49.9 °C | 0.118 | -0.273 | -0.0505 |
